Where no end group is shown, it is not given here. [ ]: non-standard residue; d: D form.
Tests used:
[1] = biological target: T1, human melanocortin receptor type 1 (MC1r) (human, UniProt Q01726 1-317)
T1 construct: whole, on cells; also called MCr1; MCR1

[2] = biological target: T1, human melanocortin receptor type 1 …; assay: cell-based or functional assay

T1 sequence (Q01726 whole entry): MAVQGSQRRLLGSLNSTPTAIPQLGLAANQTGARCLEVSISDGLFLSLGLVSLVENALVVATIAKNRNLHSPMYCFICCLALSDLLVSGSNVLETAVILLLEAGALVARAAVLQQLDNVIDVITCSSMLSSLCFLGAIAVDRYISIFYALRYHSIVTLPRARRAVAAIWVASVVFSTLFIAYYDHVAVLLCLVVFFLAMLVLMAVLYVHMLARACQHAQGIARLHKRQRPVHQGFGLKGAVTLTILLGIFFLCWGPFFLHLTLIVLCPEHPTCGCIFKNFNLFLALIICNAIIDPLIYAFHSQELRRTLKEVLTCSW

B1: α-MSH analogue #1: Ac-(Ac-Lys-Lys-)Lys-Ser-Tyr-Ser-Met-Glu-His-Phe-Arg-Trp-Gly-Lys-Pro-Val-NH2 (Ac-(Ac-Lys-Lys-)Lys-SEQ ID NO:2) (peptide)
peptide: Ac-KSYSMEHFRWGKPV-NH2
chain: Ac-Lys-Lys
modifications: also: bond at chain A 1 to a chain's C-terminus via isopeptide: branch C-terminus to Lys1 ε-amine
notes: Branched peptide
IC50 [1]: 64.5 pM
EC50, cAMP production [2]: 200 pM

B2: γ-MSH analogue #2: Ac-(Ac-Lys-Lys-)Lys-Tyr-Val-Met-Gly-His-Phe-Arg-(D-Trp)-Asp-Arg-Phe-Gly-NH2 (D-Trp version of SEQ ID NO:8) (peptide)
peptide: Ac-KYVMGHFR[dW]DRFG-NH2
chain: Ac-Lys-Lys
modifications: also: bond at chain A 1 to a chain's C-terminus via isopeptide: branch C-terminus to Lys1 ε-amine
notes: Branched peptide; the second chain is the side branch on Lys1
IC50 [1]: 606 pM

Source: US20150297672A1 (TXP PHARMA, published 2015)
